Test results taken from patent US20220332804A1 (CSL INNOVATION, published 2022).

Key:
Test in all cases: SPR, KD relative to WT C2;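 note: biacore SPR at 37 °C, anti-C2 mAbs captured via immobilised goat anti-human IgG, C2 alanine or serine surface mutants as analytes, 1:1 model fitted, double-referenced sensograms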
human C2 F689A = biological target: T1, human C2 F689A (human, UniProt P06681 21-752)
T1 sequence: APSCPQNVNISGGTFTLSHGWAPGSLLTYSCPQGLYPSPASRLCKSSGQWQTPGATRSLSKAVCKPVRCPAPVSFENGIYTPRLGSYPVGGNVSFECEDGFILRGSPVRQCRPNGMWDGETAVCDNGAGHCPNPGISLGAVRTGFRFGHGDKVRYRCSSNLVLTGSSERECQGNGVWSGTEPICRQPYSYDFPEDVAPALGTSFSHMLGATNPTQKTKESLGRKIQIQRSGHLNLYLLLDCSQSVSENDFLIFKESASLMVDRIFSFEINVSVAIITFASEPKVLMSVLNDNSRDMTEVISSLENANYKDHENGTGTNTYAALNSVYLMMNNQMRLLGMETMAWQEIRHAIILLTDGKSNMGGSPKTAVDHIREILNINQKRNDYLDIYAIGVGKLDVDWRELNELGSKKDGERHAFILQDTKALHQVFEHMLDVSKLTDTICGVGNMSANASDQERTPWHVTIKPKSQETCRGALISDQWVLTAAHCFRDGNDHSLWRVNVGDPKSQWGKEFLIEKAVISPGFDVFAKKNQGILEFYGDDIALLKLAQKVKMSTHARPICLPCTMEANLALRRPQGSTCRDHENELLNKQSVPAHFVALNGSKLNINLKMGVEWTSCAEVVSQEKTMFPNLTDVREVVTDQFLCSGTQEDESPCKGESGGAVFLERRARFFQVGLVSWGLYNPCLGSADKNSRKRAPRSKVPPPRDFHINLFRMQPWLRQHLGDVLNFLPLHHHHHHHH

human C2 V722A = biological target: T2, human C2 V722A (human, UniProt P06681 21-752)
T2 sequence: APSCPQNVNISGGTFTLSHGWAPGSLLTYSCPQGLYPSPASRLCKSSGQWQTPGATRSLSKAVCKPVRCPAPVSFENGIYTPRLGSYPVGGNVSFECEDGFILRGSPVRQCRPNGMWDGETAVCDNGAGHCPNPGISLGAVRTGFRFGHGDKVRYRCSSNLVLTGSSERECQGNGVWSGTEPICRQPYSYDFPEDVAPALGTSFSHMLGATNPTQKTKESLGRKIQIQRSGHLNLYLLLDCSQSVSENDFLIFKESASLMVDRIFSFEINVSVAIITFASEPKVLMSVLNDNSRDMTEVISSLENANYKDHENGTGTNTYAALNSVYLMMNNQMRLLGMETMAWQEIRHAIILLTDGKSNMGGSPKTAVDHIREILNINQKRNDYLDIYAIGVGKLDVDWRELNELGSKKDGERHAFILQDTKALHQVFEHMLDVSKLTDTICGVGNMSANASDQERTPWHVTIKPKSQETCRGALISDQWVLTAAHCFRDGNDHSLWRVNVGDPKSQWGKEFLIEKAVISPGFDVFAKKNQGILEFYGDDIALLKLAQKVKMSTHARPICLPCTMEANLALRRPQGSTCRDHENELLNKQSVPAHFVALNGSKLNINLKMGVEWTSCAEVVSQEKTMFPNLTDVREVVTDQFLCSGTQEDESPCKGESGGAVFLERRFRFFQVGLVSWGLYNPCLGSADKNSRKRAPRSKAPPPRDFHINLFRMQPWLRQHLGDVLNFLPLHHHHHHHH

human C2 H451A = biological target: T3, human C2 H451A (human, UniProt P06681 21-752)
T3 sequence: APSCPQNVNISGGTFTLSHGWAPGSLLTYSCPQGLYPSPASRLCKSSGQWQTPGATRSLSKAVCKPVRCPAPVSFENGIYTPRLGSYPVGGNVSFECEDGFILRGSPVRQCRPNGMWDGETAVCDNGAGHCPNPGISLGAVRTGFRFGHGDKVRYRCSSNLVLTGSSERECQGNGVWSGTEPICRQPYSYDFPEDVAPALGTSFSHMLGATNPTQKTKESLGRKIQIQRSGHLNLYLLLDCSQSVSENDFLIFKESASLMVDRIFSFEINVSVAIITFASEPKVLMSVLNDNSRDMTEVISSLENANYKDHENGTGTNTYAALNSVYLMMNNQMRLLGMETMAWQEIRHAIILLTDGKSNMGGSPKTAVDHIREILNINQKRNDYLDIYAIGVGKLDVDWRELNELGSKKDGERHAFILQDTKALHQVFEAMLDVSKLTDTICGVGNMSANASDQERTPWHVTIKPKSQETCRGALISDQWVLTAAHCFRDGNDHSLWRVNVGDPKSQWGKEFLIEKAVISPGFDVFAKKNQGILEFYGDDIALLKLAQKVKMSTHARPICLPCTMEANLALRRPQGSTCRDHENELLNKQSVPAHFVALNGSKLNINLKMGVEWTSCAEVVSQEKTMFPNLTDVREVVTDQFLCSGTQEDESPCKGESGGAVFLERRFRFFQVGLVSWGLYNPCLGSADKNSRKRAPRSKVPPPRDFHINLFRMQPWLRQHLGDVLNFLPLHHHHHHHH

human C2 N621A = biological target: T4, human C2 N621A (human, UniProt P06681 21-752)
T4 sequence: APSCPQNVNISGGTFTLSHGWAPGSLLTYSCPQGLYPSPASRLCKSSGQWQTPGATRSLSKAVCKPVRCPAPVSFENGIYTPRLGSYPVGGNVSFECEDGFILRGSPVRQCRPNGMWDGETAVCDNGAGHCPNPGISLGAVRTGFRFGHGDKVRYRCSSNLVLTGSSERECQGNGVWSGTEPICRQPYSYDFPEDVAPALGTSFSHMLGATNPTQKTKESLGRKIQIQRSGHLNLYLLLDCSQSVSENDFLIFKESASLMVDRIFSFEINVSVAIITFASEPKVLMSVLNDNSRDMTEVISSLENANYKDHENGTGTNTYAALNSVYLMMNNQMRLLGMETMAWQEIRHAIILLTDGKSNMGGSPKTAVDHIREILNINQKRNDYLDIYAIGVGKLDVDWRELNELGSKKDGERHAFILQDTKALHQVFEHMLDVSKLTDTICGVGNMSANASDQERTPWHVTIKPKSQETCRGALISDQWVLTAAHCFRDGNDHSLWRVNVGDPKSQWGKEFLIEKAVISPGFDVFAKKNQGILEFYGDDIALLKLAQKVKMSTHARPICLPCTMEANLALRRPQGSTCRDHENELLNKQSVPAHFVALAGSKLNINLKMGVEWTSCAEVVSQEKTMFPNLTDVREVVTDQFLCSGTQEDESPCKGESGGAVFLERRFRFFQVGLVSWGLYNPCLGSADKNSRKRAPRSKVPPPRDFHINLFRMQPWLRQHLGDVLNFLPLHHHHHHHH

B1: RF16-226 (antibody, human IgG4 S228P, lambda)
heavy: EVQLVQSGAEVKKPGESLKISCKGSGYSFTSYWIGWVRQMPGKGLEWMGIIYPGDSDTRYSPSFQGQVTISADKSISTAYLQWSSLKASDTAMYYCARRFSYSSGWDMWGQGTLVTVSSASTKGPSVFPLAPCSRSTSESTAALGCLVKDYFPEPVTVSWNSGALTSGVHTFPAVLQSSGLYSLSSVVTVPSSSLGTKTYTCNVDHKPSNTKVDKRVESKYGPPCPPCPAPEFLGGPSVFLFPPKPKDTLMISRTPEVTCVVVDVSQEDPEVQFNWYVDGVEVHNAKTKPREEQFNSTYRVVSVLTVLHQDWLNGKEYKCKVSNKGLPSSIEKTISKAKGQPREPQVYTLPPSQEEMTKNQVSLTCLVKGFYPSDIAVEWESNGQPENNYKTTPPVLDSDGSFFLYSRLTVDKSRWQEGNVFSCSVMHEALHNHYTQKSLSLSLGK
light: SYELTQPPSVSVSPGQTARITCSGDALTSKYVAWYQQKSGLAPLLVIYEDTRRPSGIPAKFSGSSSGSVATLTISGAHGDDEADYYCYSTDASGHQRVFGGGTKLTVLSQPKAAPSVTLFPPSSEELQANKATLVCLISDFYPGAVTVAWKADGSPVKAGVETTKPSKQSNNKYAASSYLSLTPEQWKSHRSYSCQVTHEGSTVEKTVAPTECS
notes: pH-dependent anti-C2 antibody from a phage display library; also called WT
Fold diff (human C2 F689A): 1 fold
Fold diff (human C2 V722A): 10 fold
Fold diff (human C2 H451A): 11 fold
Fold diff (human C2 N621A): 5 fold
